Results as given in patent US7390645B2, “Lactose repressor proteins with increased operator DNA binding affinity” (William Marsh Rice University, priority 1997, dated 2008).
“Also recorded” adds a separate entry of the source. Like-named read-outs stand apart in the source and are kept apart here.

Columns and labels:
[1] = target: O^1 operator sequences (lac operator DNA); test: lac operator DNA binding of lac repressor proteins characterized in vitro; parameters: species or system E. coli; settings: for affinity for lac operator DNA (in words): relative to wild-type lac repressor unless stated
Excerpt: The term “affinity”, as used in conjunction with the lac operator or an inducer ligand, is defined as 1/Kd, where Kd is the concentration of DNA or ligand required to occupy 50% of the available binding sites.
(§1) To test an altered lac repressor protein, the coding sequence for the altered lac repressor protein can be cloned into an expression vector. The expression vector can then be placed into bacterial or eukaryotic cells containing a reporter gene under lac operator control to test for an active repressor protein. For example, a reporter containing E. coli β-galactosidase (encoded by lacZ) has been constructed by excising the lacZ gene under control of the lac operator from the plasmid pCR2.1 (Invitrogen) and inserting it into plasmid pACYC184 (New England Biolabs). This new composite reporter plasmid is named pZCam and can be co-transformed or electroporated into bacteria with the plasmids containing the coding sequences of altered lac repressor proteins. Host cells for these plasmids should have neither lactose repressor nor β-galactosidase proteins (i.e., the cells are lacI^− lacZ^−). Next, these bacteria are plated in the presence of either methyl umbelliferyl-β-D-galactoside (MUG) or 5-bromo-4-chloro-3-indolyl-β,D-galactoside (X-gal) as indicators to determine whether an active repressor protein is present (white colonies). In the presence of an inducer sugar, colonies containing inducer-responsive repressor protein will be fluorescent (MUG) or blue (X-gal). Alternatively, the coding sequence can be cloned into any expression vector known in the art and transformed into E. coli that are lacI^−, preferably ΔlacI, and lacpOz^+. The lacpOz region can be on a different, but compatible, plasmid or in the bacterial genome. Colonies containing active repressor protein will be white in the absence of an inducer and fluorescent (MUG) or blue (X-gal) in the presence of an inducer. Specific amino acid changes that result in increased operator binding affinity or enhanced ligand responsivity can be determined. LacI derivatives with appropriate properties are then isolated and characterized in vitro for their (a) O^1 operator DNA binding properties in the absence and presence of the appropriate inducer ligand and (b) inducer ligand binding properties in the absence and presence of operator DNA. Purified proteins can be obtained by standard protein purification methods known to those of skill in the art.

[2] = responsivity of lac repressor proteins to inducer ligand; type: biochemical, E. coli; settings: relative to wild-type lac repressor
Excerpt: as §1
Mutants can be screened by phenotypic analysis as described above. In the preferred forms, the plasmid containing the gene for altered lac repressor protein is either co-transformed with the reporter plasmid pZCam or is transformed into E. coli that are ΔlacI and lacpOz^+. Introduction of wild-type lac repressor protein into bacteria containing pZCam or into the ΔlacI/lacpOz^+ bacteria results in white colonies in the presence of MUG or X-gal. In contrast, in the presence of IPTG or the alternative ligand, the colonies are fluorescent (MUG) or blue (X-gal). […]

[3] = reduced form; cited from earlier work
[4] = system: O^1 operator sequences (lac operator DNA); settings: relative to wild-type lac repressor; cited from earlier work
[5] = read-out: Kd for O^1 operator sequences

Row | Molecule | affinity for lac operator DNA (in words) [1] | responsivity to inducer (in words) [2] | other results
1 | Gln60Gly: altered lac repressor protein with glycine substituted for glutamine at amino acid number 60; SEQ ID NO:2 (protein, listed as Escherichia coli) MKPVTLYDVAEYAGVSYQTVSRVVNQASHVSAKTREKVEAAMAELNYIPNRVAQQLAGKGSLLIGVATSSLALHAPSQIVAAIKSRADQLGASVVVSMVERSGVEACKAAVHNLLAQRVSGLIINYPLDDQDAIAVEAACTNVPALFLDVSDQTPINSIIFSHEDGTRLGVEHLVALGHQQIALLAGPLSSVSARLRLAGWHKYLTRNQIQPIAEREGDWSAMSGFQQTMQMLNEGIVPTAMLVANDQMALGAMRAITESGLRVGADISVVGYDDTEDSSCYIPPLTTIKQDFRLLGQTSVDRLLQLSQGQAVKGNQLLPVSLVKRKTTLAPNTQTASPRALADSLMQLARQVSRLESGQ | increased affinity for operator sequences | close to normal responsivity to inducer | Kd ([1]; presence of 1 mM IPTG, read-out: Kd for O^1 operator sequences in the presence of 1 mM IPTG): > 100 nM; Kd [1, 5]: 0.004 nM
2 | wild-type LacI: naturally occurring E. coli lac repressor protein (LacI); SEQ ID NO:1 (protein, listed as Escherichia coli) MKPVTLYDVAEYAGVSYQTVSRVVNQASHVSAKTREKVEAAMAELNYIPNRVAQQLAGKQSLLIGVATSSLALHAPSQIVAAIKSRADQLGASVVVSMVERSGVEACKAAVHNLLAQRVSGLIINYPLDDQDAIAVEAACTNVPALFLDVSDQTPINSIIFSHEDGTRLGVEHLVALGHQQIALLAGPLSSVSARLRLAGWHKYLTRNQIQPIAEREGDWSAMSGFQQTMQMLNEGIVPTAMLVANDQMALGAMRAITESGLRVGADISVVGYDDTEDSSCYIPPLTTIKQDFRLLGQTSVDRLLQLSQGQAVKGNQLLPVSLVKRKTTLAPNTQTASPRALADSLMQLARQVSRLESGQ | – | – | Kd [1, 5]: 0.012 nM
3 | Val52Cys: mutation of lac repressor amino acid 52 from Val to Cys (protein) MKPVTLYDVAEYAGVSYQTVSRVVNQASHVSAKTREKVEAAMAELNYIPNRCAQQLAGKQSLLIGVATSSLALHAPSQIVAAIKSRADQLGASVVVSMVERSGVEACKAAVHNLLAQRVSGLIINYPLDDQDAIAVEAACTNVPALFLDVSDQTPINSIIFSHEDGTRLGVEHLVALGHQQIALLAGPLSSVSARLRLAGWHKYLTRNQIQPIAEREGDWSAMSGFQQTMQMLNEGIVPTAMLVANDQMALGAMRAITESGLRVGADISVVGYDDTEDSSCYIPPLTTIKQDFRLLGQTSVDRLLQLSQGQAVKGNQLLPVSLVKRKTTLAPNTQTASPRALADSLMQLARQVSRLESGQ | – | – | response to inducer (in words), from cited work [3]: normal response to inducer in reduced form; affinity for lac operator DNA (in words), from cited work [4]: increased affinity for the lac operator DNA
4 | Leu148Phe (protein) MKPVTLYDVAEYAGVSYQTVSRVVNQASHVSAKTREKVEAAMAELNYIPNRVAQQLAGKQSLLIGVATSSLALHAPSQIVAAIKSRADQLGASVVVSMVERSGVEACKAAVHNLLAQRVSGLIINYPLDDQDAIAVEAACTNVPALFFDVSDQTPINSIIFSHEDGTRLGVEHLVALGHQQIALLAGPLSSVSARLRLAGWHKYLTRNQIQPIAEREGDWSAMSGFQQTMQMLNEGIVPTAMLVANDQMALGAMRAITESGLRVGADISVVGYDDTEDSSCYIPPLTTIKQDFRLLGQTSVDRLLQLSQGQAVKGNQLLPVSLVKRKTTLAPNTQTASPRALADSLMQLARQVSRLESGQ | slightly diminished DNA affinity; also recorded: diminished affinity for operator sequences | enhanced responsivity to IPTG | –
5 | Pro320Ala: lac repressor protein Pro320Ala identified by random mutagenesis and phenotypic screening (protein) MKPVTLYDVAEYAGVSYQTVSRVVNQASHVSAKTREKVEAAMAELNYIPNRVAQQLAGKQSLLIGVATSSLALHAPSQIVAAIKSRADQLGASVVVSMVERSGVEACKAAVHNLLAQRVSGLIINYPLDDQDAIAVEAACTNVPALFLDVSDQTPINSIIFSHEDGTRLGVEHLVALGHQQIALLAGPLSSVSARLRLAGWHKYLTRNQIQPIAEREGDWSAMSGFQQTMQMLNEGIVPTAMLVANDQMALGAMRAITESGLRVGADISVVGYDDTEDSSCYIPPLTTIKQDFRLLGQTSVDRLLQLSQGQAVKGNQLLAVSLVKRKTTLAPNTQTASPRALADSLMQLARQVSRLESGQ | increased DNA affinity | normal inducer responsivity; also recorded: wild-type inducer responsivity | operator DNA affinity relative to wild-type lac repressor ([1]; higher affinity than wild-type): 10 fold
6 | Gln60Gly/Leu148Phe (protein) MKPVTLYDVAEYAGVSYQTVSRVVNQASHVSAKTREKVEAAMAELNYIPNRVAQQLAGKGSLLIGVATSSLALHAPSQIVAAIKSRADQLGASVVVSMVERSGVEACKAAVHNLLAQRVSGLIINYPLDDQDAIAVEAACTNVPALFFDVSDQTPINSIIFSHEDGTRLGVEHLVALGHQQIALLAGPLSSVSARLRLAGWHKYLTRNQIQPIAEREGDWSAMSGFQQTMQMLNEGIVPTAMLVANDQMALGAMRAITESGLRVGADISVVGYDDTEDSSCYIPPLTTIKQDFRLLGQTSVDRLLQLSQGQAVKGNQLLPVSLVKRKTTLAPNTQTASPRALADSLMQLARQVSRLESGQ | increased affinity for operator sequence compared to Leu148Phe (affinity comparable to wild-type lac repressor) | enhanced inducer responsivity comparable to Leu148Phe | –
7 | Gln55Glu: Gln55Glu mutant of the lac repressor (protein) MKPVTLYDVAEYAGVSYQTVSRVVNQASHVSAKTREKVEAAMAELNYIPNRVAQELAGKQSLLIGVATSSLALHAPSQIVAAIKSRADQLGASVVVSMVERSGVEACKAAVHNLLAQRVSGLIINYPLDDQDAIAVEAACTNVPALFLDVSDQTPINSIIFSHEDGTRLGVEHLVALGHQQIALLAGPLSSVSARLRLAGWHKYLTRNQIQPIAEREGDWSAMSGFQQTMQMLNEGIVPTAMLVANDQMALGAMRAITESGLRVGADISVVGYDDTEDSSCYIPPLTTIKQDFRLLGQTSVDRLLQLSQGQAVKGNQLLPVSLVKRKTTLAPNTQTASPRALADSLMQLARQVSRLESGQ | – | – | affinity for lac operator DNA (in words), from cited work [4]: decreased affinity for lac operator DNA
